Values of other authors, collected in paper PMC6815954, “Rational design of caspase-responsive smart molecular probe for positron emission tomography imaging of drug-induced apoptosis” (Theranostics, 2019).

System: tumor
Set-up: method as in PMID 25972517

B1: ^99mTc-Annexin V: established radiotracer (protein, UniProt P08758 2-320, looked up)
Annexin A5: AQVLRGTVTDFPGFDERADAETLRKAMKGLGTDEESILTLLTSRSNAQRQEISAAFKTLFGRDLLDDLKSELTGKFEKLIVALMKPSRLYDAYELKHALKGAGTNEKVLTEIIASRTPEELRAIKQVYEEEYGSSLEDDVVGDTSGYYQRMLVVLLQANRDPDAGIDEAQVEQDAQALFQAGELKWGTDEEKFITIFGTRSVSHLRKVFDKYMTISGFQIEETIDRETSGNLEQLLLAVVKSIRSIPAYLAETLYYAMKGAGTDDHTLIRVMVSRSEIDLFNIRKEFRKNFATSLYSMIKGDTSGDYKKALLLLCGEDD
modifications: 99mTc radiolabel
notes: established radiotracer
  differential response to treatment: little differential response
